# In IntAct's records for PubMed 31515488:
# B1: Microtubule-associated tumor suppressor candidate 2 (Homo sapiens), Q5JR59-3 (parent)
# chain: MGHCCCKPYNCLQCLDKTNESALVKEKELSIELANIRDEVAFHTAKCEKLQKEKEELERRFEDEVKRLGWQQQAELQELEERLQLQFEAEMARLQEEHGDQLLSIRCQHQEQVEDLTASHDAALLEMENNHTVAITILQDDHDHKVQELMSTHELEKKELEENFEKLRLSLQDQVDTLTFQSQSLRDRARRFEEALRKNTEEQLEIALAPYQHLEEDMKSLKQVLEMKNQQIHEQEKKILELEKLAEKNIILEEKIQVLQQQNEDLKARIDQNTVVTRQLSEENANLQEYVEKETQEKKRLSRTNEELLWKLQTGDPTSPIKLSPTSPVYRGSSSGPSSPARVSTTPR
# partner: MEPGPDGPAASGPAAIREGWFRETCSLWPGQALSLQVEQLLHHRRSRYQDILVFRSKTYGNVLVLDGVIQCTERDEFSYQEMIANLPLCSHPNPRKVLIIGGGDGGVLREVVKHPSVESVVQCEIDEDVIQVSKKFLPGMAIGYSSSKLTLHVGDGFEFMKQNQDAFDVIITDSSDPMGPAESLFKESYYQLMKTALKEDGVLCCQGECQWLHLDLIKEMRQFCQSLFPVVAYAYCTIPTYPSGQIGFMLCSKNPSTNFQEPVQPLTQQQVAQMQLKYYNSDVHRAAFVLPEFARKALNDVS
# B2: Isoform 1 of Nuclear RNA export factor 3 (Homo sapiens), Q9H4D5-1 (parent)
# chain: MSLPSGHTTGHTDQVVQRRARCWDIYQRRFSSRSEPVNPGMHSSSHQQQDGDAAMHGAHMDSPVRYTPYTISPYNRKGSFRKQDQTHVNMEREQKPPERRMEGNMPDGTLGSWFKITVPFGIKYNEKWLLNLIQNECSVPFVPVEFHYENMHASFFVENASIAYALKNVSGKIWDEDNEKISIFVNPAGIPHFVHRELKSEKVEQIKLAMNQQCDVSQEALDIQRLPFYPDMVNRDTKMASNPRKCMAASLDVHEENIPTVMSAGEMDKWKGIEPGEKCADRSPVCTTFSDTSSNINSILELFPKLLCLDGQQSPRATLCGTEAHKRLPTCKGSFFGSEMLKNLVLQFLQQYYLIYDSGDRQGLLSAYHDEACFSLSIPFNPEDSAPSSFCKFFKDSRNIKILKDPYLRGELLKHTKLDIVDSLSALPKTQHDLSSFLVDMWYQTEWMLCFSVNGVFKEVEGQSQGSVLAFTRTFIATPGSSSSLCIVNDKLFVRDTSHQGTQSALFTLVPTAFSSSVPAFSQEQQKMLPS
# partner: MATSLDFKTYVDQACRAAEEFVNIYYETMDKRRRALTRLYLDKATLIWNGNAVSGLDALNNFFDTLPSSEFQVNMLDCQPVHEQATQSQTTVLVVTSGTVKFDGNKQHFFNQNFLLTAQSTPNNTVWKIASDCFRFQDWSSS
# B3: Isoform Long of Autophagy protein 5 (Homo sapiens), Q9H1Y0-1 (parent)
# chain: MTDDKDVLRDVWFGRIPTCFTLYQDEITEREAEPYYLLLPRVSYLTLVTDKVKKHFQKVMRQEDISEIWFEYEGTPLKWHYPIGLLFDLLASSSALPWNITVHFKSFPEKDLLHCPSKDAIEAHFMSCMKEADALKHKSQVINEMQKKDHKQLWMGLQNDRFDQFWAINRKLMEYPAEENGFRYIPFRIYQTTTERPFIQKLFRPVAADGQLHTLGDLLKEVCPSAIDPEDGEKKNQVMIHGIEPMLETPLQWLSEHLSYPDNFLHISIIPQPTD
# partner: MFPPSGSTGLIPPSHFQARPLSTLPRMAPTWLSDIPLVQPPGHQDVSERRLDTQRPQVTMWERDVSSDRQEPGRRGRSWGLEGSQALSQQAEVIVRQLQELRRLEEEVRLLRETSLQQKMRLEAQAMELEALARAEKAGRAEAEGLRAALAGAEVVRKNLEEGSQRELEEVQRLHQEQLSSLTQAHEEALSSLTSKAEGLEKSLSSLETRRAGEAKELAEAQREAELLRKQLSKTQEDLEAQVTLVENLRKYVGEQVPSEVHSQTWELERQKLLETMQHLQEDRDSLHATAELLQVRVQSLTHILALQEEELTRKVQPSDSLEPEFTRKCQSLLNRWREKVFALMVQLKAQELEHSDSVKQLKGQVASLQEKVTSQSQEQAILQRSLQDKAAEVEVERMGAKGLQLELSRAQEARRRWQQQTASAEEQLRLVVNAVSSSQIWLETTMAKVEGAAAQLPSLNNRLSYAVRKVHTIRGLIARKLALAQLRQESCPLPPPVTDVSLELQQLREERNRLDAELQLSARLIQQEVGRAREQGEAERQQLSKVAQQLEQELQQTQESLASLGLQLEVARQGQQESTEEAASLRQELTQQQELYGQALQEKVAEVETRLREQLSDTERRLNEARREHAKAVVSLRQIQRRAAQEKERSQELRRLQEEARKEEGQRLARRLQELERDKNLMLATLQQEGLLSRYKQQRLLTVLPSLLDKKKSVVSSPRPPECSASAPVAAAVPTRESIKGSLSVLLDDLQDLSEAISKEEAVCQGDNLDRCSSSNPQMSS
# B4: Breast cancer metastasis-suppressor 1 (Homo sapiens), Q9HCU9 (parent)
# chain: MPVQPPSKDTEEMEAEGDSAAEMNGEEEESEEERSGSQTESEEESSEMDDEDYERRRSECVSEMLDLEKQFSELKEKLFRERLSQLRLRLEEVGAERAPEYTEPLGGLQRSLKIRIQVAGIYKGFCLDVIRNKYECELQGAKQHLESEKLLLYDTLQGELQERIQRLEEDRQSLDLSSEWWDDKLHARGSSRSWDSLPPSKRKKAPLVSGPYIVYMLQEIDILEDWTAIKKARAAVSPQKRKSDGP
# B5: Beta-crystallin A4 (Homo sapiens), P53673 (parent)
# chain: MTLQCTKSAGPWKMVVWDEDGFQGRRHEFTAECPSVLELGFETVRSLKVLSGAWVGFEHAGFQGQQYILERGEYPSWDAWGGNTAYPAERLTSFRPAACANHRDSRLTIFEQENFLGKKGELSDDYPSLQAMGWEGNEVGSFHVHSGAWVCSQFPGYRGFQYVLECDHHSGDYKHFREWGSHAPTFQVQSIRRIQQ
# B6: Fas-activated serine/threonine kinase (Homo sapiens), Q14296-1 (parent)
# chain: MRRPRGEPGPRAPRPTEGATCAGPGESWSPSPNSMLRVLLSAQTSPARLSGLLLIPPVQPCCLGPSKWGDRPVGGGPSAGPVQGLQRLLEQAKSPGELLRWLGQNPSKVRAHHYSVALRRLGQLLGSRPRPPPVEQVTLQDLSQLIIRNCPSFDIHTIHVCLHLAVLLGFPSDGPLVCALEQERRLRLPPKPPPPLQPLLRGGQGLEAALSCPRFLRYPRQHLISSLAEARPEELTPHVMVLLAQHLARHRLREPQLLEAIAHFLVVQETQLSSKVVQKLVLPFGRLNYLPLEQQFMPCLERILAREAGVAPLATVNILMSLCQLRCLPFRALHFVFSPGFINYISGTPHALIVRRYLSLLDTAVELELPGYRGPRLPRRQQVPIFPQPLITDRARCKYSHKDIVAEGLRQLLGEEKYRQDLTVPPGYCTDFLLCASSSGAVLPVRTQDPFLPYPPRSCPQGQAASSATTRDPAQRVVLVLRERWHFCRDGRVLLGSRALRERHLGLMGYQLLPLPFEELESQRGLPQLKSYLRQKLQALGLRWGPEGG
# B7: Syntaxin-12 (Homo sapiens), Q86Y82 (parent)
# chain: MSYGPLDMYRNPGPSGPQLRDFSSIIQTCSGNIQRISQATAQIKNLMSQLGTKQDSSKLQENLQQLQHSTNQLAKETNELLKELGSLPLPLSTSEQRQQRLQKERLMNDFSAALNNFQAVQRRVSEKEKESIARARAGSRLSAEERQREEQLVSFDSHEEWNQMQSQEDEVAITEQDLELIKERETAIRQLEADILDVNQIFKDLAMMIHDQGDLIDSIEANVESSEVHVERATEQLQRAAYYQKKSRKKMCILVLVLSVIILILGLIIWLVYKTK
# B8: Protein LDOC1 (Homo sapiens), O95751 (parent)
# chain: MVDELVLLLHALLMRHRALSIENSQLMEQLRLLVCERASLLRQVRPPSCPVPFPETFNGESSRLPEFIVQTASYMLVNENRFCNDAMKVAFLISLLTGEAEEWVVPYIEMDSPILGDYRAFLDEMKQCFGWDDDEDDDDEEEEDDY
# partner: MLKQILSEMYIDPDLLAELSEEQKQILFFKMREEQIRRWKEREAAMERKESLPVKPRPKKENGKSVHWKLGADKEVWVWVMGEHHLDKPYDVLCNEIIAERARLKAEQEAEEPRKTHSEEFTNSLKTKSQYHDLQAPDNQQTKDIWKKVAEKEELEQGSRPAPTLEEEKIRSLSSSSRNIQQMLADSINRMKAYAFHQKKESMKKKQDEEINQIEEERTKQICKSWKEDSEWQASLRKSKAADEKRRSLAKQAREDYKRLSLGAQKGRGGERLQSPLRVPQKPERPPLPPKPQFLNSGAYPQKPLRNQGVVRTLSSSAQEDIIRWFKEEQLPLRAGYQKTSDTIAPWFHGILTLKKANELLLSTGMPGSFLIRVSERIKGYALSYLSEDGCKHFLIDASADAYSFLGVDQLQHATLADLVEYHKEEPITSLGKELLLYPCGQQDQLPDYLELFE
# Variants of: B1
# Conditions: with spee_human SRM
row,Variant,effect of a mutation on the interaction
1,A89V,with no effect

# Variants of: B2
# Conditions: with nxt2_human NXT2, Q9NPJ8
row,Variant,effect of a mutation on the interaction
1,T9K,with no effect

# Variants of: B2
# Conditions: with nxt2_human NXT2, Q9NPJ8
# Remark: another data set of the same source
row,Variant,effect of a mutation on the interaction
1,R409W,disrupting interaction strength

# Variants of: B3
# Conditions: with cchcr_human CCHCR1, Q8TD31
row,Variant,effect of a mutation on the interaction
1,K58M,with no effect

# Variants of: B4
# Conditions: with cep70_human CEP70, Q8NHQ1
# Sequence of cep70_human CEP70, Q8NHQ1 (Q8NHQ1 whole entry): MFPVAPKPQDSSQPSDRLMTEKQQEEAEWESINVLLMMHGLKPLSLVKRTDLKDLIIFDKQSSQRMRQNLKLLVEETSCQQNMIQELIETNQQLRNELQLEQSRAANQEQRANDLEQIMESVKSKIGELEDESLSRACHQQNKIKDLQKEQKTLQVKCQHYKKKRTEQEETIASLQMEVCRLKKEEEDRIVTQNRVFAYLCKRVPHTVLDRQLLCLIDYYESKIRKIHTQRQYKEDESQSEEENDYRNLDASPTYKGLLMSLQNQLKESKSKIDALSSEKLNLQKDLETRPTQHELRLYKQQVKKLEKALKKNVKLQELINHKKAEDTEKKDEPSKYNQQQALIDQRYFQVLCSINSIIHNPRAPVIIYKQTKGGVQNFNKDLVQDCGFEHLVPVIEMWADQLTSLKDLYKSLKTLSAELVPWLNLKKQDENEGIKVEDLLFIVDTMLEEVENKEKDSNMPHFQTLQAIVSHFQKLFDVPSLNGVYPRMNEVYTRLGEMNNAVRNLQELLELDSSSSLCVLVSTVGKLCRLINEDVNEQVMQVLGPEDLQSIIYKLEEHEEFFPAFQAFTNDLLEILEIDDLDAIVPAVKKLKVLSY
row,Variant,effect of a mutation on the interaction
1,S7G,with no effect

# Variants of: B5
# Conditions: with cep76_human CEP76, Q8TAP6
# Sequence of cep76_human CEP76, Q8TAP6 (Q8TAP6 whole entry): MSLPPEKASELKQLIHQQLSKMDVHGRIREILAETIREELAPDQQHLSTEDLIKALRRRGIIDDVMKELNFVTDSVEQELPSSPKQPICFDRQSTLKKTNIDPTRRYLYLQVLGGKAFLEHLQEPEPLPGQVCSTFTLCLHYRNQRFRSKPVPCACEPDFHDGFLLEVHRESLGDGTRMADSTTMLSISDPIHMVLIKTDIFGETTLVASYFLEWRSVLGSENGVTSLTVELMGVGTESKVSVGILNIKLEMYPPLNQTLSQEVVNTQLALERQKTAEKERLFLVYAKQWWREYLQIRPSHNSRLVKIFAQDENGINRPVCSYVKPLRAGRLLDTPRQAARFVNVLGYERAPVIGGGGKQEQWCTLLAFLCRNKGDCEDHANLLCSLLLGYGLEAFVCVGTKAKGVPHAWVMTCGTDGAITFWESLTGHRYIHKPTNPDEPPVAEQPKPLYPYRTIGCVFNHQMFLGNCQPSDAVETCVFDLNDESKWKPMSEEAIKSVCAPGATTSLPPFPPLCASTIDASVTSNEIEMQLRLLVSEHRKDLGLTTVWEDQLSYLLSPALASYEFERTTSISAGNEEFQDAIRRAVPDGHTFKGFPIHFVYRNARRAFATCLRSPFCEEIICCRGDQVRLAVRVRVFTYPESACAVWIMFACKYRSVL
row,Variant,effect of a mutation on the interaction
1,R103C,with no effect

# Variants of: B6
# Conditions: with wipf1_human WIPF1, O43516
# Sequence of wipf1_human WIPF1, O43516 (O43516 whole entry): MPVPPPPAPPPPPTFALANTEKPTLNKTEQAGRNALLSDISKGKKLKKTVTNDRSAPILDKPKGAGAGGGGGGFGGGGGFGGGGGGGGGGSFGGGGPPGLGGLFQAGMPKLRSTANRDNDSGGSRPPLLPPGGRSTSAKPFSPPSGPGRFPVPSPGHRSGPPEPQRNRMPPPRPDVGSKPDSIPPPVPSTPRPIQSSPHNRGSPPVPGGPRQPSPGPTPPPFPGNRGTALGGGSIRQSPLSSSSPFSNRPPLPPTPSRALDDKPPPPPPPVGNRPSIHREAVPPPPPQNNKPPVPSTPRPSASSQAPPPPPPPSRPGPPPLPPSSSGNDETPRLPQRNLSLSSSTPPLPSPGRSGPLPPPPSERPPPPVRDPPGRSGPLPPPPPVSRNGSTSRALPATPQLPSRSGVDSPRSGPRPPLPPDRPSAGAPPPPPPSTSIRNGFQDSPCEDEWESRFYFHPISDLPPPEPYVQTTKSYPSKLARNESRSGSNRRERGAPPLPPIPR
row,Variant,effect of a mutation on the interaction
1,V424L,disrupting interaction strength

# Variants of: B6
# Conditions: with mdfi_human MDFI
row,Variant,effect of a mutation on the interaction
1,V424L,disrupting interaction strength

# Variants of: B7
# Conditions: with dtx2_human DTX2, Q86UW9
# Sequence of dtx2_human DTX2, Q86UW9 (Q86UW9 whole entry): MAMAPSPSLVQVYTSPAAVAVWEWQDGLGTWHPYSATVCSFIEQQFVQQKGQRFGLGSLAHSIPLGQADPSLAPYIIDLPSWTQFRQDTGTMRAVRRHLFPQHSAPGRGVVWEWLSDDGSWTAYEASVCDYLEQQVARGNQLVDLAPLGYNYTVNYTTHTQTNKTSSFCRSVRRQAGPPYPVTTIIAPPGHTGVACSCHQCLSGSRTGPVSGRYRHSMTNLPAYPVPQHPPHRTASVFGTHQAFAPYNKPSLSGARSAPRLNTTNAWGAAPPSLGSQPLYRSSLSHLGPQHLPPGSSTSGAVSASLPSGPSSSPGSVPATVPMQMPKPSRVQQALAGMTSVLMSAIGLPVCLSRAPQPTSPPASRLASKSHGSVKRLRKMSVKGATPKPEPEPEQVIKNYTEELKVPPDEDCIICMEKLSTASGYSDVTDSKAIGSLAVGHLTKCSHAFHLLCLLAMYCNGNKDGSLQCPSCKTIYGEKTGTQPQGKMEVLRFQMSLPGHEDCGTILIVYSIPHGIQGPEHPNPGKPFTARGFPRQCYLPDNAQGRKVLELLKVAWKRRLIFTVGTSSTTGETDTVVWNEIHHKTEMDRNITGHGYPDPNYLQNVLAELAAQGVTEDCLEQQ
row,Variant,effect of a mutation on the interaction
1,P88R,with no effect

# Variants of: B7
# Conditions: with stx4_human STX4, Q12846
# Sequence of stx4_human STX4, Q12846 (Q12846 whole entry): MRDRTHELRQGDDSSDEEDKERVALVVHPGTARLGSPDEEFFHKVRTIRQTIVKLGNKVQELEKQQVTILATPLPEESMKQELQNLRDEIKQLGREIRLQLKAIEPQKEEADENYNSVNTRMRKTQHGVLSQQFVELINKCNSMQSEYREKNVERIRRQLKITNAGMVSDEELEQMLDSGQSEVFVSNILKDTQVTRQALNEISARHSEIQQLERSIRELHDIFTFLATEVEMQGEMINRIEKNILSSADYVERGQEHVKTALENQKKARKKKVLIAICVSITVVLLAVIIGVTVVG
row,Variant,effect of a mutation on the interaction
1,P88R,with no effect

# Variants of: B8
# Conditions: with sh24a_human SH2D4A
row,Variant,effect of a mutation on the interaction
1,L12H,disrupting interaction strength
